Reference: patent US20240092867A1 (UNIVERSITY OF CHICAGO, published 2024)

What was measured:
[1] = target: T1, recombinant laminin α3 2928-3150 protein (linker domain and LG4 domain) (human, UniProt Q16787 2928-3150); test: SPR, α3 2928-3150 immobilised, GF flowed, Langmuir fit
T1 construct: range 2928-3150; Made in HEK-293F cells; also called laminin alpha 3 LG domain recombinant protein
T1 sequence: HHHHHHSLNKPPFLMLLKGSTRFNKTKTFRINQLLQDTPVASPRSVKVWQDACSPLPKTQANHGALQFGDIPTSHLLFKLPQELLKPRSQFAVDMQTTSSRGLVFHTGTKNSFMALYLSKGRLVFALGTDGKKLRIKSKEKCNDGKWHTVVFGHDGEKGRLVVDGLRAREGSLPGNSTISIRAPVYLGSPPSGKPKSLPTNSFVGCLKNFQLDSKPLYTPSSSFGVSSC
Description: Affinity of GFs against recombinant laminin LG domains. ELISA plates were coated with 1 μg/mL (A) α3₂₉₂₈₋₃₁₅₀, (B) α4₈₂₆₋₁₈₁₆, or (C) α5₃₀₂₆₋₃₄₈₂ and further incubated with 1 μg/mL of VEGF-A165, VEGF-A121, PlGF-2, PlGF-1, PDGF-BB, or FGF-2 solution. Bound GFs were detected using a specific antibody for each GF (n=4, mean±SEM). Statistical analyses were done using the Mann-Whitney U test by comparing the signals obtained from the laminin domain- and the BSA-coated wells. *p<0.05, **p<0.01. […] A SPR chip was functionalized with the laminin α3₂₉₂₈₋₃₁₅₀ recombinant protein (˜1000 RU), and each GF was flowed over the chip at indicated concentrations. Curves represent the specific responses (in RU) to laminin. Experimental curves were fitted with Langmuir binding kinetics.
(§1) Because the GFs that bound to laminins have also been previously reported to bind to other ECM glycoproteins through HBDs, it was hypothesized that HBDs of laminins might be responsible for the interactions between GFs and laminin. To address this hypothesis, ELISA assays were repeated for VEGF-A165, PlGF-2 or FGF-2 in the presence of heparin added in excess (10 μM). […] To further confirm this, the inventors tested direct GF binding to the LG domains from human laminin α3, α4 and α5, within which HBDs of laminin were localized.
SPR analysis was performed as described previously². […]

human plasma-derived vWF = target: T2, human plasma-derived vWF (human, UniProt P04275 764-2813); test: SPR, vWF immobilised, GF flowed, 1:1 Langmuir fit
T2 construct: mature; also called plasma-derived purified vWF; von Willebrand factor
Description: A450 nm represents absorbance at 450 nm. Signals from VEGF-A121 served as a baseline, and bovine serum albumin (BSA) served as a negative control (n=4, mean±SD). […] Experimental curves were fitted with (C) 1:1 Langmuir fit model and (D) heterogeneous ligand-parallel reactions binding.
SPR assays were performed as described previously2. In brief, measurements were made with a Biacore X100 SPR system or Biacore 3000 SPR system (GE Healthcare). […] Recombinant human VEGF-A165, VEGF-A121, or PDGF-BB was flowed at increasing concentrations in the running buffer at 30 μL/min. The sensor chip was regenerated with glycine at pH 2 for every cycle.

[2] = target: T1, recombinant laminin α3 2928-3150 …; test: SPR; α3 2928-3150 recombinant protein immobilised (~1000 RU), VEGF-A165 flowed at 0.325-10.4 nM; Langmuir fit [panel D]
Description: Statistical analyses were done using the Mann-Whitney U test by comparing the signals obtained from the laminin domain- and the BSA-coated wells. *p<0.05, **p<0.01. […] A SPR chip was functionalized with the laminin α3₂₉₂₈₋₃₁₅₀ recombinant protein (˜1000 RU), and each GF was flowed over the chip at indicated concentrations. Curves represent the specific responses (in RU) to laminin. Experimental curves were fitted with Langmuir binding kinetics.
as §1
SPR analysis was performed as described previously². In brief, measurements were made with a Biacore 3000 SPR system (GE Healthcare). […] VEGF-A165, PDGF-BB, or PlGF-2 was flowed at increasing concentrations in the running buffer at 20 μL/min. The sensor chip was regenerated with 50 mM NaOH for every cycle.

Kd [1]: 1.2 nM | Kd (human plasma-derived vWF): 27 nM | Kd [2]: 1.47 nM | koff [2]: 0.00663 s⁻¹ | kon [2]: 4.52e+06 M⁻¹ s⁻¹
B1: vascular endothelial growth factor (VEGF)-A165 (ligand, human, UniProt P15692-4 27-191, looked up)
chain: APMAEGGGQNHHEVVKFMDVYQRSYCHPIETLVDIFQEYPDEIEYIFKPSCVPLMRCGGCCNDEGLECVPTEESNITMQIMRIKPHQGQHIGEMSFLQHNKCECRPKKDRARQENPCGPCSERRKHLFVQDPQTCKCSCKNTDSRCKARQLELNERTCRCDKPRR
notes: mature; Purchased in mature form, not glycosylated
